T1: Recombinant Human IL-17 (human, UniProt Q16552 20-155, limits assumed)
T1 sequence (looked up): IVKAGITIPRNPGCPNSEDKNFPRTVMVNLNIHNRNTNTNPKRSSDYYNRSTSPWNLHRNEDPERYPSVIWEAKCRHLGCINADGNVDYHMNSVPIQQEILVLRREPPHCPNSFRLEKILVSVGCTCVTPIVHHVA

T2: Recombinant Human IL-17 (human, UniProt Q16552 20-155, limits assumed)
T2 construct: bought reagent
T2 sequence (looked up): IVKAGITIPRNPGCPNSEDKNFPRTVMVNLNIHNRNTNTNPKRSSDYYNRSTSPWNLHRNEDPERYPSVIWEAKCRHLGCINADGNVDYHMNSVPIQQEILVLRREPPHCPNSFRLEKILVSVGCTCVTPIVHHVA


Legend:
Recombinant Human IL-1β [1] = molecular target: T3, Recombinant Human IL-1β (human, UniProt P01584 117-269); assay: cell-based or functional assay
Recombinant Human IL-17 [2] = molecular target: T1, Recombinant Human IL-17; assay: cell-based or functional assay
Recombinant Human IL-17 [3] = molecular target: T1, Recombinant Human IL-17; assay: Biacore SPR; C-terminal VD
Summary of the method: (§1)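 Captured antibody or DVD-Ig bound antigen (10−200 nM) in HBS-EP at 25° C. KD = koff/kon from a 1:1 global fit.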

Recombinant Human IL-1β [4] = molecular target: T3, Recombinant Human IL-1β; assay: Biacore SPR; N-terminal VD
Summary of the method: as §1

Recombinant Human IL-17 [5] = molecular target: T2, Recombinant Human IL-17; assay: Biacore SPR; C-terminal VD
Summary of the method: as §1

Recombinant Human IL-1β [6] = molecular target: T4, Recombinant Human IL-1β (human, UniProt P01584 117-269); assay: Biacore SPR; N-terminal VD
T4 construct: bought reagent; also called IL-1B
Summary of the method: as §1

N-Terminal VD IL-1β Neutralization Assay EC50 (Recombinant Human IL-1β [1]) [nM] | C-terminal VD IL-17 Neutralization Assay EC50 (Recombinant Human IL-17 [2]) [nM] | Kd (Recombinant Human IL-17 [3]) [nM] | koff (Recombinant Human IL-17 [3]) [s⁻¹] | kon (Recombinant Human IL-17 [3]) [M⁻¹ s⁻¹] | Kd (Recombinant Human IL-1β [4]) [nM] | koff (Recombinant Human IL-1β [4]) [s⁻¹] | kon (Recombinant Human IL-1β [4]) [M⁻¹ s⁻¹] | Kd (Recombinant Human IL-17 [5]) [nM] | koff (Recombinant Human IL-17 [5]) [s⁻¹] | kon (Recombinant Human IL-17 [5]) [M⁻¹ s⁻¹] | Kd (Recombinant Human IL-1β [6]) [nM] | koff (Recombinant Human IL-1β [6]) [s⁻¹] | kon (Recombinant Human IL-1β [6]) [M⁻¹ s⁻¹] | Binder
0.24 | 0.127 | 0.14 | 4.9e-05 | 360000 | 0.06 | 0.00045 | 7.6e+06 |  |  |  |  |  |  | DVD1635 (bispecific antibody, human IgG1, kappa, DVD-Ig: outer AB271, inner AB274; V1/V2 vectors: wild type hIgG1, kappa) heavy: not shown light: DTVVTQSPAFLSVTPGEKVTITCITSTDIDVDMNWYQQKPDQPPKLLISQGNTLRPGVPSRFSSSGSGTDFTFTISSLEAEDAATYYCLQSDNLPLTFGQGTKLEIKRTVAAPEIVLTQSPDFQSVTPKEKVTITCRASQDIGSELHWYQQKPDQPPKLLIKYASHSTSGVPSRFSGSGSGTDFTLTINGLEAEDAGTYYCHQTDSLPYTFGPGTKVDIKRTVAAPSVFIFPPSDEQLKSGTASVVCLLNNFYPREAKVQWKVDNALQSGNSQESVTEQDSKDSTYSLSSTLTLSKADYEKHKVYACEVTHQGLSSPVTKSFNRGEC
0.417 | 0.15 | 0.65 | 8.1e-05 | 120000 | 0.08 | 0.00056 | 7e+06 |  |  |  |  |  |  | DVD1645 (bispecific antibody, human IgG1, kappa, DVD-Ig: outer AB271, inner AB275; V1/V2 vectors: wild type hIgG1, kappa) heavy: not shown light: DTVVTQSPAFLSVTPGEKVTITCITSTDIDVDMNWYQQKPDQPPKLLISQGNTLRPGVPSRFSSSGSGTDFTFTISSLEAEDAATYYCLQSDNLPLTFGQGTKLEIKRTVAAPEIVLTQSPDFQSVTPKEKVTITCRASQNIGSELHWYQQKPDQSPKLLIKYASHSISGVPSRFSGSGSGTDFTLTINGLEAEDAATYYCHQSDTLPHTFGQGTKVDIKRTVAAPSVFIFPPSDEQLKSGTASVVCLLNNFYPREAKVQWKVDNALQSGNSQESVTEQDSKDSTYSLSSTLTLSKADYEKHKVYACEVTHQGLSSPVTKSFNRGEC
0.371 | 0.146 | < 0.0063 | < 1e-06 | 160000 | 0.063 | 0.00057 | 9e+06 |  |  |  |  |  |  | DVD1633 (bispecific antibody, human IgG1, kappa, DVD-Ig: outer AB270, inner AB274; V1/V2 vectors: wild type hIgG1, kappa) heavy: not shown light: DTQVTQSPSSLSASVGDRVTITCITSTDIDVDMNWYQQKPGKPPKLLISQGNTLRPGVPSRFSSSGSGTDFTFTISSLQPEDFATYYCLQSDNLPLTFGQGTKLEIKRTVAAPEIVLTQSPDFQSVTPKEKVTITCRASQDIGSELHWYQQKPDQPPKLLIKYASHSTSGVPSRFSGSGSGTDFTLTINGLEAEDAGTYYCHQTDSLPYTFGPGTKVDIKRTVAAPSVFIFPPSDEQLKSGTASVVCLLNNFYPREAKVQWKVDNALQSGNSQESVTEQDSKDSTYSLSSTLTLSKADYEKHKVYACEVTHQGLSSPVTKSFNRGEC
0.552 | 0.0271 | ≤ 0.0025 | < 1e-06 | 230000 | 0.075 | 0.00059 | 7.9e+06 |  |  |  |  |  |  | DVD1637 (bispecific antibody, human IgG1, kappa, DVD-Ig: outer AB272, inner AB274; V1/V2 vectors: wild type hIgG1, kappa) heavy: not shown light: ETTVTQSPSSLSASVGDRVTITCITSTDIDVDMNWYQQKPGKPPKLLISQGNTLRPGVPSRFSSSGSGTDFTFTISSLQPEDFATYYCLQSDNLPLTFGQGTKLEIKRTVAAPEIVLTQSPDFQSVTPKEKVTITCRASQDIGSELHWYQQKPDQPPKLLIKYASHSTSGVPSRFSGSGSGTDFTLTINGLEAEDAGTYYCHQTDSLPYTFGPGTKVDIKRTVAAPSVFIFPPSDEQLKSGTASVVCLLNNFYPREAKVQWKVDNALQSGNSQESVTEQDSKDSTYSLSSTLTLSKADYEKHKVYACEVTHQGLSSPVTKSFNRGEC
0.465 | 0.121 | 0.52 | 9.4e-05 | 180000 | 0.074 | 0.00048 | 6.5e+06 |  |  |  |  |  |  | DVD1643 (bispecific antibody, human IgG1, kappa, DVD-Ig: outer AB270, inner AB275; V1/V2 vectors: wild type hIgG1, kappa) heavy: not shown light: DTQVTQSPSSLSASVGDRVTITCITSTDIDVDMNWYQQKPGKPPKLLISQGNTLRPGVPSRFSSSGSGTDFTFTISSLQPEDFATYYCLQSDNLPLTFGQGTKLEIKRTVAAPEIVLTQSPDFQSVTPKEKVTITCRASQNIGSELHWYQQKPDQSPKLLIKYASHSISGVPSRFSGSGSGTDFTLTINGLEAEDAATYYCHQSDTLPHTFGQGTKVDIKRTVAAPSVFIFPPSDEQLKSGTASVVCLLNNFYPREAKVQWKVDNALQSGNSQESVTEQDSKDSTYSLSSTLTLSKADYEKHKVYACEVTHQGLSSPVTKSFNRGEC
0.0113 | 2.61 | ≤ 0.0028 | ≤ 1e-06 | 370000 | 0.045 | 5.6e-05 | 1.2e+06 |  |  |  |  |  |  | DVD1639 (bispecific antibody, human IgG1, kappa, V1/V2 vectors: wild type hIgG1, kappa) heavy: not shown light: DIQMTQSPSSLSASVGDRVTITCRASGNIHNYLTWYQQTPGKAPKLLIYNAKTLADGVPSRFSGSGSGTDYTFTISSLQPEDIATYYCQHFWSIPYTFGQGTKLQITRTVAAPEIVLTQSPDFQSVTPKEKVTITCRASQNIGSELHWYQQKPDQSPKLLIKYASHSISGVPSRFSGSGSGTDFTLTINGLEAEDAATYYCHQSDTLPHTFGQGTKVDIKRTVAAPSVFIFPPSDEQLKSGTASVVCLLNNFYPREAKVQWKVDNALQSGNSQESVTEQDSKDSTYSLSSTLTLSKADYEKHKVYACEVTHQGLSSPVTKSFNRGEC
 |  |  |  |  |  |  |  | ≤ 0.00011 | < 1e-06 | 1.4e+06 | 0.039 | 7.3e-05 | 1.9e+06 | DVD1629 (bispecific antibody, human IgG1, kappa, V1 wt hIgG1, V2 kappa; also called DVD1629H; DVD1629L) heavy: not shown light: DIQMTQSPSSLSASVGDRVTITCRASGNIHNYLTWYQQTPGKAPKLLIYNAKTLADGVPSRFSGSGSGTDYTFTISSLQPEDIATYYCQHFWSIPYTFGQGTKLQITRTVAAPEIVLTQSPDFQSVTPKEKVTITCRASQDIGSELHWYQQKPDQPPKLLIKYASHSTSGVPSRFSGSGSGTDFTLTINGLEAEDAGTYYCHQTDSLPYTFGPGTKVDIKRTVAAPSVFIFPPSDEQLKSGTASVVCLLNNFYPREAKVQWKVDNALQSGNSQESVTEQDSKDSTYSLSSTLTLSKADYEKHKVYACEVTHQGLSSPVTKSFNRGEC
 |  |  |  |  |  |  |  | ≤ 0.00014 | < 1e-06 | 250000 | 0.017 | 2.2e-05 | 1.3e+06 | DVD1631 (bispecific antibody, human IgG1, kappa, V1 wt hIgG1, V2 kappa; also called DVD1631H; DVD1631L) heavy: not shown light: DIQMTQSPSSLSASVGDRVTITCRASGNIHNYLTWYQQTPGKAPKLLIYNAKTLADGVPSRFSGSGSGTDYTFTISSLQPEDIATYYCQHFWSIPYTFGQGTKLQITRTVAAPEIVLTQSPDFQSVTPKEKVTITCRASQDIGSELHWYQQKPDQPPKLLIKYASHSTSGVPSRFSGSGSGTDFTLTINGLEAEDAGTYYCHQTDSLPYTFGPGTKVDIKRTVAAPSVFIFPPSDEQLKSGTASVVCLLNNFYPREAKVQWKVDNALQSGNSQESVTEQDSKDSTYSLSSTLTLSKADYEKHKVYACEVTHQGLSSPVTKSFNRGEC
0.0786 | 1.87 | 0.27 | 2.2e-05 | 84000 | 0.018 | 1.9e-05 | 1e+06 |  |  |  |  |  |  | DVD1641 (bispecific antibody, human IgG1, kappa, V1/V2 vectors: wild type hIgG1, kappa) heavy: not shown light: DIQMTQSPSSLSASVGDRVTITCRASGNIHNYLTWYQQTPGKAPKLLIYNAKTLADGVPSRFSGSGSGTDYTFTISSLQPEDIATYYCQHFWSIPYTFGQGTKLQITRTVAAPEIVLTQSPDFQSVTPKEKVTITCRASQNIGSELHWYQQKPDQSPKLLIKYASHSISGVPSRFSGSGSGTDFTLTINGLEAEDAATYYCHQSDTLPHTFGQGTKVDIKRTVAAPSVFIFPPSDEQLKSGTASVVCLLNNFYPREAKVQWKVDNALQSGNSQESVTEQDSKDSTYSLSSTLTLSKADYEKHKVYACEVTHQGLSSPVTKSFNRGEC
